Data published in PMC9173640, “PI Kinase-EhGEF2-EhRho5 axis contributes to LPA stimulated macropinocytosis in Entamoeba histolytica” (PLoS Pathogens, 2022).

Target: T1, GST-RBD (Rho binding domain of mRhotekin) ( (printed as mRhotekin), UniProt Q8C6B2 17-98)
T1 construct: also called RBD-GST; source: E. coli BL21(DE3), purified (GST-sepharose beads); construct a gift from Dr. Richard Cerione
T1 sequence (looked up): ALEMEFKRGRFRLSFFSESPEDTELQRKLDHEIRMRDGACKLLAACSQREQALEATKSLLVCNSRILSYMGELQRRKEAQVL
Assay: pull-down; GST-RBD/GST-PBD bound to sepharose beads incubated 2 hrs at 4°C with lysates (10 mM MgCl2, 5 mM EDTA) of serum starved HA-EhRho5 trophozoites, with or without 15 uM LPA for 15 mins, followed by 100 nM wortmannin or DMSO; blot with anti-HA
Details: one partner purified

B1: HA-EhRho5 (natural protein)
chain: not shown
notes: EhRho5 (EhRacD), Rho family GTPase of Entamoeba histolytica, Acc no; EHI_012240; PCR primers run from the ATG to the stop codon; cloned in EhEx-HA with SmaI-XhoI; Expressed under the amoebic cysteine synthase promoter; also called EhRacD; source: E. histolytica HM1:IMSS trophozoites, stably transfected (EhEx-HA), in lysate
fold increase in binding after LPA treatment against untreated trophozoites: 7 fold
